Here are results for 1 substance from patent publication US20150119475.

The series concerns the target Snail protein (SNAI1/Snail, expressed as GST fusion in E. coli, GST moiety cleaved with thrombin) (UniProt O95863).

Sequence of Snail protein (SNAI1/Snail, expressed as GST fusion in E. coli, GST moiety cleaved with thrombin) (O95863 whole entry, the tested form may be a part): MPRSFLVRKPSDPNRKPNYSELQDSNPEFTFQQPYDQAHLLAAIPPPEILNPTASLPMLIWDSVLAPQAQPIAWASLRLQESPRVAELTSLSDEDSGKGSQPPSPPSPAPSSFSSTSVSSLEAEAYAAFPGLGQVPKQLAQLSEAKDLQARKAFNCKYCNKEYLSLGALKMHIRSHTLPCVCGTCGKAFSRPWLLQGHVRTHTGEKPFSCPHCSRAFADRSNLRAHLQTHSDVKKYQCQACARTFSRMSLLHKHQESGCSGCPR

On to recombinant Akt3 (ProQinase GmbH), for which the “in vitro kinase assay with 32P-ATP, detected by autoradiography” value was “Akt1 and Akt3 kinases are able to directly phosphorylate Snail protein”.
